Data reported in patent publication US20230121248A1.

Experiments:
Test in all cases: cell-based or functional assay
[1] = target: native JAM-A on CAL27 cells (UniProt Q9Y624)
[2] = target: mock CAR-T cells (CAR-T not able to recognize CD19)
[3] = target: anti-CD19 chimeric antigen receptor on anti-CD19 CAR-T cells

Sequence of UniProt Q9Y624 (Q9Y624 28-299 limits assumed): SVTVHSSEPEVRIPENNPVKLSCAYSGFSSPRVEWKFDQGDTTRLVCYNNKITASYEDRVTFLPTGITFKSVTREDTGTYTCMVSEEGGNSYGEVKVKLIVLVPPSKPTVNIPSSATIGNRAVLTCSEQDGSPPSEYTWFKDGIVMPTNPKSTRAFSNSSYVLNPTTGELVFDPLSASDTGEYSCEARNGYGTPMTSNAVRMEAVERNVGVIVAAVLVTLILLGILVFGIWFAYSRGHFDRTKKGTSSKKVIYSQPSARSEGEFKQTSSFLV

Substance	proliferation of CAL27 cells (ATPlite, ratio to untreated control), 1 uM soluble JAM-A [1]	proliferation (ATP fold of control) of A549 cells 72 h after the mock CAR-T killing assay, 1 uM CM19XA [2] [fold]	proliferation (ATP fold of control) of CAL27 cells 72 h after the mock CAR-T killing assay, 1 uM CM19XA [2] [fold]	proliferation (ATP fold of control) of A549 cells 72 h after the anti-CD19 CAR-T killing assay, 1 uM CM19XA [3] [fold]	proliferation (ATP fold of control) of CAL27 cells 72 h after the anti-CD19 CAR-T killing assay, 1 uM CM19XA [3] [fold]
soluble JAM-A protein (extracellular domain of JAM-A fused with MBP) (from UniProt Q9Y624 28-238)	1.24	–	–	–	–
CM19XA (CD19-GS linker-JAM-A-pHLIP fusion protein with N-terminal 6xHis tag)	–	1.03	1.01	0.74	0.72
